Experimental findings from publication PMC9700832 are described below.

Assay [1] addresses Staphylococcus aureus LexA (S. aureus). Description: SPR; LexA immobilised on a CM5 chip (1200 to 1300 RU); analytes in three-fold dilutions (6-1458 nM), 180 s at 30 uL/min, 25 °C; 20 mM HEPES pH 7.4, 150 mM NaCl, 3 mM EDTA, 0.1 mg/mL BSA, 0.005% P20; apparent KD from steady-state affinity fits, two titrations. Background: In SPR one partner is held on a chip, and binding of the other changes the refractive index at the surface.

Assay [2] has the same target. Description: SPR; […] (6-1458 nM), 180 s at 30 uL/min, 25 °C; 20 mM HEPES pH 7.4, 150 mM NaCl, 3 mM EDTA, 0.1 mg/mL BSA, 0.005% P20; […].
The target of assay [3] is Bacillus thuringiensis serovar israelensis LexA (B. thuringiensis serovar israelensis). The experiment in a line: SPR; LexA immobilised on a CM5 chip (1200 to 1300 RU); analytes in three-fold dilutions (6-1458 nM), 180 s at 30 uL/min, 25 °C; 20 mM HEPES pH 7.4, 150 mM NaCl, 3 mM EDTA, 0.1 mg/mL BSA, 0.005% P20; apparent KD from steady-state affinity fits, two titrations.

In the case of “gp7 of bacteriophage GIL01 (natural protein)”, the Kd in assay [1] stood at 298 nM.

As to “tectiviral gp7 homolog from the phage found in Bacillus thuringiensis serovar aizawai (natural protein)”, the Kd in assay [1] was found to be 302 nM.

As for “tectiviral gp7 homolog from the phage found in Bacillus cereus VD184 (natural protein)”, the Kd in assay [1] was 381 nM.

For “tectiviral gp7 homolog of Bacillus anthracis phage AP50 (natural protein)”, the Kd in assay [2] is 446 nM.

Take “Bacillus thuringiensis uncharacterized protein M1QNS5 (natural protein)”: the Kd in assay [3] came to 365 nM.

Turning to “tectiviral gp7 homolog from the phage found in Bacillus cereus HuB13-1 (natural protein)”, in assay [1], the Kd was 787 nM.

In the case of “Staphylococcus aureus nucleoid-associated protein HU, purified recombinant (from UniProt Q5HFV0 1-90) (natural protein)”, the Kd in assay [1] came to 843 nM.

In the case of “tectiviral gp7 homolog of Bacillus mycoides VDm034 phage Lima (natural protein)”, in assay [2], the Kd is 331 nM.
